The values below come from paper PMC5118412 (Cell Discovery, 2016).

One experiment concerns GLP-1R. The settings on record: covalently attaches to C347; ref [34], [35]; cited from earlier work. From the text:
GPCRs have been viewed as ‘allosteric machines’ [33] because many allosteric modulators have been identified binding outside the orthosteric pocket of the physiological activators to modulate endogenous agonist binding and function. […] Although mutating C347 to positively charged lysine or arginine ...

Experiment [1] deals with human GLP-1R stably expressed in AD293 cells (GLP-1R/NlucP-293 cells) (human) (UniProt P43220).
Experiment [2] addresses GLP-1-5xGSA-GLP-1R (24–429)–TEV site–tTA (UniProt P43220).
The target in experiment [3] is EX4-5xGSA-GLP-1R (24–429)–TEV site–tTA (Gila monster | human) (UniProt P43220).
The target of experiment [4] is GLP-1 Δ5-5xGSA-GLP-1R (24–429)–TEV site–tTA (UniProt P43220).
In experiment [5] the target is GLP-1 Δ4-5xGSA-GLP-1R (24–429)–TEV site–tTA (UniProt P43220).

With `CC[S+]([O-])c1nc(-c2cccc(OCc3ccccc3)c2)cc(C(F)(F)F)n1` (stereo not drawn) [BETP, 4-(3-(Benzyloxy)phenyl)-2-ethylsulfinyl-6 (trifluoromethyl)pyrimidine], in the experiment with GLP-1R, the “allosteric modulation of GLP-1R” value is “positive allosteric modulator”.
On to GLP-1(9–37) (peptide), for which, in experiment [1], the cAMP signal (CRE-NanoLuc luciferase reporter) in GLP-1R/NlucP-293 cells; potency (EC50) of full-length GLP-1 over that of the truncated GLP-1 amounted to 1000 fold.
Regarding “ß-arrestin 1 fused with TEV protease (from UniProt P49407 1-418) (natural protein)”, the Tango assay (tTA/TRE-luc reporter) in HTL cells; arrestin recruiting signal against the unfused receptor with 1 μM hormone in experiment [2] and in experiment [3] was 150 throughout. Further, the Tango assay (tTA/TRE-luc reporter) in HTL cells, relative to GLP-1-5GSA-FL (Δ0) (% of GLP-1-5GSA-FL (Δ0)) in experiment [4] and in experiment [5] was 50 in each case.
